This data set is described as follows: soluble on expression in E. coli; label from the status in PepcDB or PDB records.
With “MASIELRNVQTELAAKNLQFKVLTEKFLEQRKELFDAKKTDSNVEYVECLSEKLRVATERISDLEKETKEGKQVANEEIGRLEKLLREAQQKRDAKIDESYQTFLRIELLVANLGESTDPENEKRIKNLMPAAKTGIPPEGVLRLTINALDSAARESKKKTMAIESLTKQVDDANKLTEVYMKRLEELEDKHRFEEALTLKIQAMMIETTGQLEAQKKIIADLQKKNDDLMKEEEGEEDYEEEENYEVEEDFEDEEEYDEEGEEEDYE”, the “soluble on expression in E. coli” value is reported as “not soluble”. Turning to “MKIDLNADLGEGCASDAELLTLVSSANIACGFHAGDAQIMQACVREAIKNGVAIGAHPSFPDRENFGRSAMQLPPETVYAQTLYQIGALATIARAQGGVMRHVKPHGMLYNQAAKEAQLADAIARAVYACDPALILVGLAGSELIRAGKQYGLTTREEVFADRGYQADGSLVPRSQSGALIENEEQALAQTLEMVQHGRVKSITGEWATVAAQTVCLHGDGEHALAFARRLRSAFAEKGIVVAALEHHHHHH”, the “soluble on expression in E. coli” value is given as “soluble”. The entry for “AIAAELGLNEHHQNEVINYMRFARSKRGLRLKTVDSCFQDLKESRLVEDTFTIDEVSEVLNGLQAVVHSEVESELINTAYTNVLLLRQLFAQAEKWYLKLQTDISELENQELLEQVAEFEKAEITSSNKKPILDVTKPKLAPLNEGGTAELLNEEILRLQEENEKLKSRLKTIEIQATNALDEKSKLEKALQDLQLDQGNQKDFIKAQDLSNLENTVAALKSEFQKTLNDKTENQKSLEENLATAKHDLLRVREQLHMAEKELEKKFQQTAAYRNMKEILTKKNDQIKDLRKRLAQYEPED” is “soluble”; for “MIKNNIKHTWYFGHPQQLVWDYLTKPELLSQWLMESDFQPVAGHTFMFNTKPKVKVGFDGLIYCQVLKVQPDHELEHHHHHH” it is “soluble”; for “MEESPTKTFKCPKCWNKFENKPKLITHVDLECKHKYFRCELCDFKSTQKTGLTSHYHGHIRQSNVIHCPYCKKKKTFKSRNNLMVHVHHYHPTHINEMKQANLESAKEEKMKTMLEKQAKEAHEFEISQPAVFEKDFASYDLPMFSQCPPMNGIPVSTPIEYPYSQNPYQDHTPFDSYPYPNFHPQQLPLPTFENNLPDIATYFDL” it is “not soluble”. On to “MSEAKWLSLLGLAARARQLLTGEEQVVKAVQNGQVTLVILSSDAGIHTKKKLLDKCGSYQIPVKVVGNRQMLGRAIGKHERVVIGVKDAGFSRKLAALIDE”, for which the “soluble on expression in E. coli” value is on record as “soluble”.

With “MGSDKIHHHHHHMRWEEVEPVVRELLDFQISSPEEFRTFINKVTDFFDRVREEHGWLYIKMTVNADKEEFAKAYEEFQKEIVAKLKPYEQKIKEKIVENEHFAPRGYEHMIKVIKNDVELFREENVPLQVKESILSRNYGTIVGNIEVDFEGEKKTLQQLSVYLRDPDRSTRELAWRKRYEGIWEVRDKLNKLFDELKEIRHQQALNAGFSNYRDYMHRLKSRFEYTPEDLYRFHEAVEKEVVPYLVERTKIRQRKLGIESVRPWDTAVDVDGKVLKPFSSVEEFMEKTERALKRLNPTFAERFRLMREKNLLDLENRKGKAPGGYNHTLPKTGAPFIFMNAVGQPGDVRTIFHELGHSMHSFETLSLPVFYRPHRMEVAELASMSLELISMEYWDEFYTDPEDLKKAKIEELEGALYFLPWCMIVDAFQHWIYTNPDHTPKERDEYFAYLMDRFNPGVDWSDLDEEKKTRWLFQLHIFEVPFYYIEYGIAQIGALAIYRNYIEDPEKTLKDYQRFLSVGCSMPVDEVYKTAGIELKFSRDYIREIVDFVAKQIEEIEK”, the “soluble on expression in E. coli” value is given as “not soluble”. On to “MSLSEKVTIYDIAEKLNITAATVSRALNNNPKIKESTRELVIKTAASMNYKQNKLALALKSGRSNNIGVIVPRIDSNFFASVIRGIEEELQPHGYQVIICQTHESKQRENENLYTLIDAQVDGILMSVTDVTSENDDAFNNVLQKNVPLIFFDRSKHIDGVSSVTINDFRGGYLTTKHLINEGCRYIAHFSGDQSLEIFKNRFLGYKQALLDHGIEFKEEYVIPVKSMVDAGKEAVDKLLQLETPPDAIFSSSDFAALGAIQELKERNISIPNEFCVAGFSNEPFTKFMELSITSVDQSPLEMGKMAARVFLEQVDKTDTIKIEKKVVLAPELHIRKSSSRTNFEGHHHHHH”, for which the “soluble on expression in E. coli” value is “soluble”. The entry for “MGSDKIHHHHHHMDVVDELIKLHEEHVSGLLRLCGQAGWPDYGEQELKLLVQQGRFFGYQNVSGDIISCIGLFLFGRLTSIGLVIVDKEYQRLGLGRRMVNACITQTDENTAIRLCATKEGLPLYEKAGFHTAGSVRKYSCHSFQPYTKKLDAELTSFREQDFHDLTAADLAAFGGDRSNLLQQLISASCECIIARNQDGQLIGYGLSVQTPANLKFGPIIAPSSDVAAQIITRLAAGKQGPMRIDIPSEHTSLHDSLIEMGFHKDDEPPILFYQKKAPIQNGHLYALISQALG” is “not soluble”; for “MAHHHHHHMQCSSLKTGCLKLLSQLPEGLQQAGRTAVSAHQRSYCPYSNFAVGAALLHDDGKVTSGCNYETCVYKGTCAEACAIVKANMDGYRTAQAVAIYGRSVLPTAAAAAADATVPPCGFCRQLLAEVADLSGNMNDFLVVLVTFDQEHARLFRLSELLPQPFGPSSIGMDVAALATGEHSRCPGTF” it is “not soluble”; for “MGSDKIHHHHHHVVDVAHAVKPMSVPQRIEQASRHDLLVLSSQSGPRQSAWSSLTSALGGQDIDDHAGMPCRRVMLMLAEHEAELLRRECQLIPIVGADAVAQSVTLTKKAVPGNWCAWGVLDRDAAQQHLDAKIVSMGARLRDEPAFGLMFSCLARGPHFYDGVDQDIALLKRYYPSMPVIGFYGNGEIAPLNGRNVLWQNSVVLGLFTAES” it is “not soluble”. The entry for “SNAMRKDETSNTSPDISVAQPASALRYHLRPPRRNDGAAIHQLVSECPPLDLNSLYAYLLLCEHHAHTCVVAESPGGRIDGFVSAYLLPTRPDVLFVWQVAVHSRARGHRLGRAMLGHILERQECRHVRHLETTVGPDNQASRRTFAGLAGERGAHVSEQPFFDRQAFGGADHDDEMLLRIGPFTHPPH” is “soluble”; for “MGKRVLIVDDATNGREAVEKYKELKPDIVTMDITMPEMNGIDAIKEIMKIDPNAKIIVCSAMGQQAMVIEAIKAGAKDFIVNTAAVENPSLITQIAQTFGSQAVVVAIDAKRVDGEFMVFTYSGKKNTGILLRDWVVEVEKRGAGEILLTSIDRDGTKSGYDTEMIRFVRPLTTLPIIASGGAGKMEHFLEAFLAGADAALAASVFHFREIDVRELKEYLKKHGVNVRLEGLLEHHH” it is “soluble”; for “MKPKEDREWEKFKTKHITSQSVADFNCNRTMNDPAYTPDGQCKPINTFIHSTTGPVKEICRRATGRVNKSSTQQFTLTTCKNPIRCKYSQSNTTNFICITCRDNYPVHFVKTGKC” it is “soluble”.

Regarding “MAHHHHHHMSAMSSSDDAPPHQRLASEQSKRDSGAHVGAREHIHDAPTLSARARFLRELERYASDDDDYGGNGGAAVVGAGPMRQPNQANGAPQRRTAFPLVSATRAAAPSVGPSSSSDFFFGGEGGSHDEADDEDVGEDAVWSTASAASLARTLNGVPVTGSTSDIGTTGGSAAPSRVGLQLLHRMHALSTSGDRRSSGHDSAVHSAATRANVMIPQTSPTPTSSADFEVVHAYVPLSTGGFLSTANAAHDTMEGYQVRIGDVLSLRKPLSCTDPPPSSAVASAPASSPTTSTATPSIAALTLTTGSAAAGASATGSLVKDVAQKAMGHFKSAATFTSEEQKYGRKLTPDMVRLLFEVTRVDYQGRSIEALFLDGTRAKVSFFEVRPAGYVERKMYATWKADPSSRPVTIIHSNASSPTTSSAPNGAVMPSSVPSPALPPPPSVTAAAWWVIPRLLVRVTTEAAGDWYGKKCVVKAVQRSENRVRLAEWVEEGRSDGGESGSRSFHNCGKPTAATAETRELIGVDGLETVVPKKGGRAMVVLGSRRGEMCTVRNRVRGADGELTAVEVEISRTKEVMTLQAGELCALAR”, the “soluble on expression in E. coli” value was “soluble”. With “MGSDKIHHHHHHVAAESKTIAIALNNDFINNLDLSPASTVIEQLLRDGAASHEQQLRFDINYDLEPGDPRELSEIPEIRLWFVRLDAKYPWLAFLLDWKAGEFARYAAMLVPHQFSSQDGIQYNPEALEIFLMHKIFILGDWLKQQDIPSLSRLKSMAQMLGYELDDAFFEIF”, the “soluble on expression in E. coli” value is on record as “not soluble”.

“MYSPESMNSNISSPSPPSSSSLNAPSLADAPEVRSDDGEAETSEPSTSVTAVPMEIVSQASTSAPVNQLLASGIDMSSVIKNNAVLQALLASASAGGFGDNAGLTMSKLLTAALANGSTAVAKRDAGSPRTDIPKKTRLKVFSNGFFMTFDKLSSCQKKYFWRCEYKNTCKARMHTDIVTEKILTFIHEHNHSAPIDEEVRLYGLDPTNIERNRVYIVGNVADPNQRRKIRKQVADREAAAKRLVQQQEEEQQKQQSASSIVAARAAYAQAMQNGSIPTSSGVASFLQSTSATAPMTSHSMLLAQMPFLNNIKTEMSNMVKNEQFTPERYTQHMSPNLPLQTATIAPLIIPTENYDSPSYRQPAIKRKATDLTNEEHDLRRDPMFQPTFELARKLRKLWKGEPNRYPRTTTTPTHHFEFFLSKNDGTDEHLYVPMRINLRDEAHLKEALQDFCGQQCIGMLLFGISPKISVMFNQPMLNNWDNNQFFLLDISNPSRWRLMYVDDQAV”: the “soluble on expression in E. coli” value is on record as “not soluble”. Regarding “MNSSTANKQKGIQLIPFTVDKVVEQVNEIPPGVQLIHAPQVWEKSAKGKDIVVAVLDTGCDMNHIDLKDRIIGGRNFTKDYEGDPNIYLDNNGHGTHVAGTIAATENGVGVLGVAPLAKMLVLKVLAGDGSGSYEQIIEAIHYAVNWRGPNKERVRVISMSLGGPQDVPELHEAIQNAVKQDVLVVCAAGNNGDCNDNTEELDFPGAYSEVIEVGAVNLERKIACFSNSNQEIDLVAPGDEILSTYPEGKYAVLSGTSMATPHVAGALALLIKQCEREYGRKLSEPEIYAQLIKRTVPLGYERTSEGNGLIDLLKE”, the “soluble on expression in E. coli” value is recorded as “not soluble”. For “MGSDKIHHHHHHMKFPLLLALLVGGASALHLSSETSDSKSPLMDENLPRDAEISGPEGEECPPGEELMPLEGEKEEGSGSEGVPGDEGAVSGQDVTDVDLQCPKEEDTTSLMGDSGCKTCRYLLVRRAECFDKAQSVCRRCYRGTLASIHSFSVNFGIQSAVRGINQGQVWIGGRIKGWGRCKRFRWVDGSSWNFAYWAAGQPCPGGGRCVTLCTQGGHWRLSHCVKRRPFICSY”, the “soluble on expression in E. coli” value is recorded as “not soluble”.

In the case of “MSLSSHKPTVVLADSNDDFRSYLTSCLTEEFTIKSFRDGIEAMAYIKNEYPDLVICDTELQNMDGVELSSRLKTSCETSIIPIILYSSHIDINQHNRRKTSLADTFLQQPFSVTDLKLEMSILIKNTRFLRKSFLQRLFGEEFLETKASEILQDGKHPLISKVTKIILENLNNEKLTIDSIAKELGISRTSLYNKWTQLTGEALNKFILKIRMEKAHEMLKSGKYRVNEVPEKIGMKDMDNFREKYKKYFGKTPVDTIKNEGHHHHHH”, the “soluble on expression in E. coli” value is listed as “soluble”. The value for “MLKINYPIKGACQCGQVTYQLLAAPLMVAACHCRECQKLSTSAFSITAVVNATDVVFSGEMSDWSRLADNGNTNGAKFCPCCGNRIYHFNPNFPDKIKLKPSTLEDTRVIQPTMHIWTSEKQAWFKLPLDLPSHEKQPF” was “not soluble”; that for “MTALESSYLNLAYPPRLDLGPQLTHDQLRSSMQSTMARHKGGPVWLFAYGSLIWRPECSAVERKRGRVHGYHRGLYLWSHEHRGTPELPGLVFGLDRGGSCSGFAYRLPEEQLDASLYALWQREMPYPSYRPHWLNCRLEDGSQVQALGFVLERHLPSYAGNLPDDVLNQVFESACGRYGTTRDYVEQTVQALRSHAMPDRNLEARLKRCKGADAHLEHHHHHH” was “not soluble”; that for “MKANTIIAGLLSSTLLATAAYAQTPAPADSTRTMSKSTSASESQHMGQWRASKLIGVNVYNQGNEKLGDISEMLIDSEGRIQGVVIGVGGFLGVGQRDVAVTFDKLQWVNTPVSSNTAMNSQTTPAGSGTSTASPAGTTTGAATSTTAANNADRWYPDHAVLNATKDQLKSMPEFKYSK” was “not soluble”.

The record behind these values is the DeepSol protein solubility set.
